In paper PMC7583008:
pKi: −log10 of the molar value.

Tests used:
[1] = target: GH2 β-mannosidase from Cellulomonas fimi (EC 3.2.1.25) (Cellulomonas fimi) (UniProt Q9XCV4)
[2] = target: GH2 β-mannosidase from Cellulomonas fimi (EC 3.2.1.25) (Cellulomonas fimi) (UniProt Q9XCV4); assay: enzyme inhibition titration (residual activity against inhibitor/enzyme ratio); fixed enzyme (11.8 μM) preincubated with increasing γC for 10 min at room temperature; 100 mM sodium maleate pH 6.0, BSA 1 mg/mL, 1 mM Zn2+, pNP-β-D-mannopyranoside 0.8 mM, 35 °C, 15 min; Ki calculated from the IC50 by the method of Cer et al., assuming competitive inhibition (Km 300 μM); stoichiometry from the x-intercept of the tangent line
[3] = target: GH2 β-mannosidase from Cellulomonas fimi (EC 3.2.1.25) (Cellulomonas fimi) (UniProt Q9XCV4); remark: listed apart in the source
[4] = target: GH2 β-mannosidase from Cellulomonas fimi (EC 3.2.1.25) (Cellulomonas fimi) (UniProt Q9XCV4); remark: listed apart in the source

UniProt Q9XCV4, sequence (Q9XCV4 entry or part of it): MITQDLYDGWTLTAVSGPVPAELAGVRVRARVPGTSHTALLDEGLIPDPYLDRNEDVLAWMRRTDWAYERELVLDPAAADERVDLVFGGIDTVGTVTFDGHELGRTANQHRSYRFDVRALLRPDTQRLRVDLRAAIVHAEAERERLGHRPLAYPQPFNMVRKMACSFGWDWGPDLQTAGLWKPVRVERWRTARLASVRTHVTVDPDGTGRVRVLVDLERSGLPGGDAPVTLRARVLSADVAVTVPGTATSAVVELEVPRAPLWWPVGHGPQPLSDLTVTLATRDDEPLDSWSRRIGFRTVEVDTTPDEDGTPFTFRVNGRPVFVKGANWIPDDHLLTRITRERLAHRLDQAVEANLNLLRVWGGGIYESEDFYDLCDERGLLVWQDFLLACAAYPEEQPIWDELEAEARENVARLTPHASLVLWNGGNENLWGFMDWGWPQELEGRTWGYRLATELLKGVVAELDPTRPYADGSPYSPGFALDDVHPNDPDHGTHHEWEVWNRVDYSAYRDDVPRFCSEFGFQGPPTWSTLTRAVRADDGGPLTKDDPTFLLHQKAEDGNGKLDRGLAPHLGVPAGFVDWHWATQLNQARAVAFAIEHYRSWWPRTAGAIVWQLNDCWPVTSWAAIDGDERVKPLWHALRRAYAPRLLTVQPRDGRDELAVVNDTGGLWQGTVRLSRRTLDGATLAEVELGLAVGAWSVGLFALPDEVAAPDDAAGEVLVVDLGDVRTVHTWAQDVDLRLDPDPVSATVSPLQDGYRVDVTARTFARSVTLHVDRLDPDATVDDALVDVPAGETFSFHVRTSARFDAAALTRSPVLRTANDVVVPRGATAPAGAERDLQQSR

IC50 of the inhibition of GH2 β-mannosidase activity by γC, as a molar ratio (11.8 μM enzyme, 1 mM Zn2+, pH 6.0) (molar ratio [γC]/[GH2]) [1]: 0.99 | pKi [2]: 5.81 | stoichiometry N (enzyme/inhibitor) [2]: 1.14 | residual activity of GH2 β-mannosidase with γC at a molar ratio of 1:1 in the presence of 1 mM Zn2+ [3]: 55% | residual activity of GH2 β-mannosidase with γC at a molar ratio of 1:1 (pNP-β-D-mannopyranoside as substrate, no metal added) [4]: 73%
Substance: Lupinus albus γ-conglutin (natural protein)
